Data taken from publication doi:10.1101/2022.03.30.486221 (bioRxiv, 2022).

Target: the molecule itself
Test: SEC

B1: recombinant His6-tagged StTGA2.1 (natural protein, UniProt A0A9F1U434 1-270, looked up)
chain: MDAMGDREGPRLVSSTALWRGDRRPAQVVQVSQLEQDFQRAPQQRESGSLPFDTEYSRWLEEHTKHINELRTAVNSHASDPELRSMVDSVIAHYDEVYRMKANAAKGNVEHLLSGMWKTPAERCSMWIGDFRPSLLLKLLVNQVEPLTEQQLIGIVNLQQSSQQAEDALSQDMEAWQQSLEVTLAYGSLATEGSSGDAAYNISQMAMAMGILGTLEGFLRQADNLRQQTLQQMHRMLTTRQSARALLAISEYFSRLRALSSLWLARPREQ
In the case of B1, the “stoichiometry N” value is reported as 2.
